Test results published in patent US8129345B2, “MUC1-IκB kinase complexes and their activities” (Dana-Farber Cancer Institute, Inc., priority 2006, dated 2012).

Legend:
[1] = target: IKKγ (Homo sapiens, UniProt Q9Y6K9); assay: In vitro GST pull-down binding to IKKγ
Procedure: FIG. 5B is a pair of photographs of immunoblots showing an interaction between MUC1-CD and IKKγ. GST- and GST-IKKγ bound to glutathione beads were incubated with purified MUC1-CD. The precipitates were immunoblotted (IB) with anti-MUC1-C antibodies. Commassie blue staining of the gel was performed to confirm that equal amounts of GST- and GST-IKKγ were used in the experiment. The molecular weights of proteins (as indicated on the left of the photographs) are expressed as kilodaltons (kDa).
(§1) FIG. 5C is a pair of photographs of immunoblots. GST- and the indicated GST-MUC1-CD fusion proteins or fragments bound to glutathione beads were incubated with purified IKKγ. The precipitates were immunoblotted (IB) with anti-IKKγ antibody. Commassie blue staining of the gel was performed to confirm that equal amounts of GST- and GST-MUC1 proteins were used in the experiment. The molecular weights of proteins (as indicated on the left of the photographs) are expressed as kilodaltons (kDa).
FIG. 5D is a pair of photographs of immunoblots. GST and the indicated GST-IKKγ fusion proteins bound to glutathione beads were incubated with MUC1-CD. The precipitates were immunoblotted (IB) with anti-MUC1-C antibody. Commassie blue staining of the gel was performed to confirm that equal amounts of GST- and GST-IKKγ proteins were used in the experiment. The molecular weights of proteins (as indicated on the left of the photographs) are expressed as kilodaltons (kDa).
as §1, with “FIG. 11B” for “FIG. 5C”, “of an immunoblot and Coomassie blue stained gel. GST” for “of immunoblots. GST-”, “proteins (MUC1-CD and MUC1-CD(mSRM))” for “proteins or fragments”, “with” for “with purified”, “with an” for “with”, “and GST-MUC1-CD” for “and GST-MUC1”
In vitro binding assays. Purified GST-MUC1-CD (glutathione s-transferase fused to the MUC1-CD polypeptide) was cleaved with thrombin to remove the GST moiety. GST, GST-IKKβ (DiDonato et al. (1997) Nature 388:548-554), GST-IKKβ (1-458), GST-IKKβ (458-756), GST-IKKγ (Prajapati et al. (2002) J. Biol. Chem. 277:24331-24339), GST-IKKγ (1-196) or GST-IKKγ (197-419) were then incubated with the MUC1-CD for 1 hour at 25° C. In other experiments, GST, GST-MUC1-CD, GST-MUC1-CD(1-45) or GST-MUC1-CD(46-72) were incubated with purified IKKβ or IKKγ. Adsorbates to glutathione-conjugated beads were analyzed by immunoblotting.

[2] = target: T1, IKKβ (Homo sapiens, UniProt O14920); assay: In vitro GST pull-down binding to IKKβ; conditions: GST pull-down with purified proteins, immunoblot
T1 sequence (O14920 1-756): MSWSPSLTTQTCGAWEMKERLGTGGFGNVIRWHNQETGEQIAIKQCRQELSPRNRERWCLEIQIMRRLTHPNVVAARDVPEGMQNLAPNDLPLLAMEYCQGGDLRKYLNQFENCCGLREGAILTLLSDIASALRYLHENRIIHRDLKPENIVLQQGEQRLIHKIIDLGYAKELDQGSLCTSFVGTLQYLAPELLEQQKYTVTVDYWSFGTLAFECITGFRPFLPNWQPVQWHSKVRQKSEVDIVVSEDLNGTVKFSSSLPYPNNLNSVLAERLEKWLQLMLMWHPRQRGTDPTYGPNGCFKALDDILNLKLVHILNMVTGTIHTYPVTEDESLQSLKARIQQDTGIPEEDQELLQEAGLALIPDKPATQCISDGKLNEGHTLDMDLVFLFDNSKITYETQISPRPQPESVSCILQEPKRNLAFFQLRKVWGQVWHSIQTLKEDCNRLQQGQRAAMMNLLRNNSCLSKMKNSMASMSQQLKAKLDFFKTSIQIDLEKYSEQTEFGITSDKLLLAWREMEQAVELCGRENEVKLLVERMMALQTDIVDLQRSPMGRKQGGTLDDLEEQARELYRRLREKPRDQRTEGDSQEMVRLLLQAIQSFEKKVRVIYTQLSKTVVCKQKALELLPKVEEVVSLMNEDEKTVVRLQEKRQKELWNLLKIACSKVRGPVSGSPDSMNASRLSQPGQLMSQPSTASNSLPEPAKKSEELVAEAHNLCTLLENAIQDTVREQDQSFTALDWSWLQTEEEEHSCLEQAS
Procedure: FIG. 4B is a pair of photographs of immunoblots. Recombinantly expressed, purified GST- and GST-IKKβ proteins bound to glutathione-agarose beads were incubated with purified MUC1-CD protein. The precipitates were immunoblotted (IB) with anti-MUC1-C antibodies. Input of the GST and GST-IKKβ proteins was assessed by Coomassie blue staining. The molecular weights of proteins (as indicated on the left of the photographs) are expressed as kilodaltons (kDa).
FIG. 4C (top panel) is a schematic diagram of the amino acid sequence of (i) the MUC1-cytoplasmic domain (MUC1-CD) [amino acids 1-72; SEQ ID NO:2]; (ii) the MUC1-CD fragment [amino acids 1-45; SEQ ID NO:3]; and (iii) the MUC-CD fragment [amino acids 46-72; SEQ ID NO:4]. FIG. 4C (bottom panel) is a photograph of an immunoblot and a photograph of a Coomassie blue-stained electrophoretic gel. GST- and the indicated GST-MUC1-CD fusion proteins bound to glutathione beads were incubated with purified IKKβ. The precipitates were immunoblotted with anti-IKKβ. Input of the GST and GST-MUC1-CD fusion proteins was assessed by Coomassie blue staining. The molecular weights of proteins (as indicated on the left of the photographs) are expressed as kilodaltons (kDa).
FIG. 11A is a pair of photographs of an immunoblot and Coomassie-blue stained gel. GST and the indicated GST-MUC1-CD fusion proteins (MUC1-CD and MUC1-CD(mSRM)) bound to glutathione beads were incubated with IKKβ. The precipitates were immunoblotted (IB) with an anti-IKKβ antibody. Commassie blue staining of the gel was performed to confirm that equal amounts of GST- and GST-MUC1-CD proteins were used in the experiment. The molecular weights of proteins (as indicated on the left of the photographs) are expressed as kilodaltons (kDa).
In vitro binding assays. Purified GST-MUC1-CD (glutathione s-transferase fused to the MUC1-CD polypeptide) was cleaved with thrombin to remove the GST moiety. […] Adsorbates to glutathione-conjugated beads were analyzed by immunoblotting.

- binding to IKKγ ([1]; GST pull-down with purified proteins, immunoblot): binds to purified IKKγ
- binding to IKKβ [2]: interact directly
Substance: MUC1-CD: 72 amino acid cytoplasmic domain of human MUC1, SEQ ID NO:2
- region of IKKγ bound by MUC1-CD ([1]; GST-IKKγ (1-196) and GST-IKKγ (197-419) incubated with MUC1-CD): binds to the C-terminal region (197-419) of IKKγ
